The results in this text go back to publication PMC5856381.

For this assay, the target named is recombinant haptoglobin Hp1S, C1r-LP processed (rHp 1–1) (human) (UniProt P00738). Put plainly: non-reducing SDS-PAGE; Coomassie-stained gel of non-reduced protein samples; disulfide-linked dimers and multimers.

What is called stoichiometry N is a count of units in the complex or per binding partner. Turning to “recombinant haptoglobin Hp1S, C1r-LP processed (rHp 1–1) (from UniProt P00738-2 19-101) (natural protein)”, the stoichiometry N was 2.
